First the molecules themselves.
T1: C-terminal domain of the Zaire strain of Ebola virus nucleoprotein (EBOV NP^CT) (Ebola virus, Zaire strain (EBOV), UniProt P18272 641-739)
T1 construct: also called EBOV NT^CT; NP^CT EBOV Zaire
T1 sequence: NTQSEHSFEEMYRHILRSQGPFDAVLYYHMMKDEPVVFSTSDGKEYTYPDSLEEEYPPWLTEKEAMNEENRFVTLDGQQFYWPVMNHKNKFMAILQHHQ

B1: Protein GA1 (designed binder)
chain: TPAVTTYKLVINGRTLSGYTTTTAVDAATAEKVFKQYAYVHEVDGEWTYDDATKTFTVTEKPEKL
notes: also called pGA1; PGA1
B2: Protein G D (designed binder)
chain: B1 chain with Y37I, A38D, Y39M, H41S, E42S
notes: also called pGD; D 38IDMVSS43
B3: Protein G F (designed binder)
chain: B1 chain with Y39F, V40G, H41N, E42G
notes: also called pGF; F 38YAFGNG43
B4: Fab Lc scaffold variant ΔΔLKT (mutated; printed in Table 1 as AALKS) (Fab, V domains shown)
VH: EVQLVESGGGLVQPGGSLRLSCAASGFNISYSSIHWVRQAPGKGLEWVASIYSYSGYTSYADSVKGRFTISADTSKNTAYLQMNSLRAEDTAVYYCARSYWYHVGSWHYTGMDYWGQGTLVTVSS
VL: DIQMTQSPSSLSASVGDRVTITCRASQSVSSAVAWYQQKPGKAPKLLIYSASSLYSGVPSRFSGSRSGTDFTLTISSLQPEDFATYYCQQSSSSLITFGQGTKVEIKR
B5: MJ6 EBOV LRT-Fab (Fab, V domains shown)
VH: EVQLVESGGGLVQPGGSLRLSCAASGFNVYYYYIHWVRQAPGKGLEWVASISPYYGYTSYADSVKGRFTISADTSKNTAYLQMNSLRAEDTAVYYCARWSYDQSMSYKSGMDYWGQGTLVTVSS
VL: B4 VL with S91Y, S93Y, I96V
notes: also called Fab MJ6
B6: MJ20 RESTV LRT-Fab (Fab, V domains shown)
VH: B4 VH
VL: B4 VL
notes: also called Fab MJ20

For assay [1], the target named is T2, Fab^S (Herceptin Fab scaffold variant with Lc E123S; Lc aa 123-127 SQLKS). Put plainly: SPR. (SPR reads the build-up and loss of mass on a sensor chip optically.)
The target of assay [2] is T2, Fab^S (Herceptin Fab scaffold variant …). The experiment in a line: SPR (preliminary results), Protein G variant against Fab scaffold.
Assay [3] has as its target T3, Fab^H (Herceptin Fab scaffold with wt human kappa Lc; Lc aa 123-127 EQLKS).
T3 construct: also called Hkappa
Described as above.

The target in assay [4] is T4, “Λ” Fab scaffold (4D5 scaffold with SEELQANK in the Lc region).
T4 construct: also called “Lambda” Fab scaffold
T4 sequence (light, as listed by the source): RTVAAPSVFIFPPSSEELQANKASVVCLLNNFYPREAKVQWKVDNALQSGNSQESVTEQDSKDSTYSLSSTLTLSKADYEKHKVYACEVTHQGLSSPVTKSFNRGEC
The description is as above.

Assay [5] addresses B1. Put plainly: SPR, Fab Lc variant as analyte on His-tag-immobilized GA1.
Assay [6] concerns the target T1, C-terminal domain of the Zaire strain …. The experiment in a line: SPR, Fab as analyte on His-tag-immobilized antigen.

Substitutions are numbered along the chain they refer to.

What is called Kd is a measure of binding affinity in units of concentration. Higher therefore signals weaker binding. For the molecule B1, the equilibrium dissociation constant (Kd) in assay [1] was roughly 50 nM; in assay [2], 100 nM. With B2, in assay [2], the Kd came out at 80 nM. In the case of B3, the figures for the Kd in assay [2], in assay [3] and in assay [4] were 60 nM, 3 nM and 50 nM, respectively. The molecule B4 registered an equilibrium dissociation constant (Kd) in assay [5] of 12 nM. Broadly, the koff is a measure of how fast the partners let go of each other. Read a low koff as a long-lived complex. In assay [6], B5 registered a Kd of 0.7 nM and an off-rate constant (koff) of 0.001 s⁻¹. The molecule B6 yielded a Kd in assay [6] of 3.4 nM.

The record behind these values is patent US20240043534A1 (UNIVERSITY OF CHICAGO, published 2024).
